Assay results: US20200079833A1 (AstraZeneca / MedImmune, published 2020)
Starred links: 1 amine or outer side, 2 acyl side, 3 side chain; linkers in the order of their positions; H or OH if unused. Non-standard residues stand in square brackets, D forms with d. Groups on a side chain read outwards from the residue. Primed or numbered codes have the meaning given here. No end group written: not given here. *: point of attachment. γGlu = O=C(O)[C@H](CCC(=O)[*:2])N[*:1]; Stearoyl = CCCCCCCCCCCCCCCCCC(=O)*; αMeF = C[C@](N)(Cc1ccccc1)C(=O)O; αMeK = C[C@](N)(CCCCN)C(=O)O; αMeS = C[C@](N)(CO)C(=O)O; PEG2′ = not defined here; Aib = CC(C)(N)C(=O)O

T1: GLP-1R (INS1e assay) (UniProt P32301 22-463, limits assumed)
T1 sequence (looked up): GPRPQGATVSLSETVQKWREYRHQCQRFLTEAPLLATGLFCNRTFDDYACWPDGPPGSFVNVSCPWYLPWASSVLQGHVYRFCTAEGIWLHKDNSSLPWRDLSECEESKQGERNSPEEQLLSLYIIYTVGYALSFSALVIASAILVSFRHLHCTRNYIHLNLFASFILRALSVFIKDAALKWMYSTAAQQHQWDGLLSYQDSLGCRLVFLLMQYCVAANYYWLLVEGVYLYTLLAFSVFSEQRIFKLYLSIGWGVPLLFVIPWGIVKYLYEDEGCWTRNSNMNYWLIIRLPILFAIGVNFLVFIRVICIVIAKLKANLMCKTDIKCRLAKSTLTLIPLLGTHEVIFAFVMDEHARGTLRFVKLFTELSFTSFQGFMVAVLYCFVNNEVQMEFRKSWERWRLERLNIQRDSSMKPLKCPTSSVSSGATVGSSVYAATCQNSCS


Biological target: T1, GLP-1R (INS1e assay)
Assay: cell-based or functional assay

Row | Binder | INS1e assay EC50 GLP-1 R n1 | INS1e assay EC50 GLP-1 R n2 | INS1e assay EC50 Mean pM GLP-1R
1 | H[Aib]EGS[αMeF]TSDV[αMeS]S[αMeF]LEGEAAK([PEG2′-PEG2′-γGlu-Stearoyl])E[αMeF]IA[αMeF]VV[αMeK]GG-NH2 [SEQ ID NO 3] | 3.59 nM | 3.78 nM | 3680 pM
2 | HXEGTFTSDVSSYLEGQAAKEFIAWLVKGRK (Aib2; K(ε-(PEG)2-(PEG)2-γE-Stearate) after R30; C-terminal amide) [SEQ ID NO 6] | 0.104 nM | 0.139 nM | 122 pM
3 | H[Aib]EGS[αMeF]TSDV[αMeS]S[αMeF]LEGEAA[αMeK]E[αMeF]IA[αMeF]VV[αMeK]GG-NH2 (N-terminus assumed; SMILES CC[C@H](C)[C@H](NC(=O)[C@](C)(Cc1ccccc1)NC(=O)[C@H](CCC(=O)O)NC(=O)[C@](C)(CCCCN)NC(=O)[C@H](C)NC(=O)[C@H](C)NC(=O)[C@H](CCC(=O)O)NC(=O)CNC(=O)[C@H](CCC(=O)O)NC(=O)[C@H](CC(C)C)NC(=O)[C@](C)(Cc1ccccc1)NC(=O)[C@H](CO)NC(=O)[C@](C)(CO)NC(=O)[C@@H](NC(=O)[C@H](CC(=O)O)NC(=O)[C@H](CO)NC(=O)[C@@H](NC(=O)[C@](C)(Cc1ccccc1)NC(=O)[C@H](CO)NC(=O)CNC(=O)[C@H](CCC(=O)O)NC(=O)C(C)(C)NC(=O)[C@@H](N)Cc1c[nH]cn1)[C@@H](C)O)C(C)C)C(=O)N[C@@H](C)C(=O)N[C@@](C)(Cc1ccccc1)C(=O)N[C@H](C(=O)N[C@H](C(=O)N[C@@](C)(CCCCN)C(=O)NCC(=O)NCC(N)=O)C(C)C)C(C)C) [SEQ ID NO 17] | 0.0051 nM | 0.00787 nM | 6 pM
4 | H[Aib]EGS[αMeF]TSDV[αMeS]S[αMeF]LEGEAAK([PEG2′-PEG2′-γGlu-Stearoyl])E[αMeF]IA[αMeF]VV[αMeK]GG-NH2 [SEQ ID NO 33] | 3.59 nM | 3.78 nM | 3680 pM
5 | H[Aib]EGS[αMeF]TSDV[αMeS]S[αMeF]LEGEAAEE[αMeF]IA[αMeF]VV[αMeK]GG-NH2 (N-terminus assumed; SMILES CC[C@H](C)[C@H](NC(=O)[C@](C)(Cc1ccccc1)NC(=O)[C@H](CCC(=O)O)NC(=O)[C@H](CCC(=O)O)NC(=O)[C@H](C)NC(=O)[C@H](C)NC(=O)[C@H](CCC(=O)O)NC(=O)CNC(=O)[C@H](CCC(=O)O)NC(=O)[C@H](CC(C)C)NC(=O)[C@](C)(Cc1ccccc1)NC(=O)[C@H](CO)NC(=O)[C@](C)(CO)NC(=O)[C@@H](NC(=O)[C@H](CC(=O)O)NC(=O)[C@H](CO)NC(=O)[C@@H](NC(=O)[C@](C)(Cc1ccccc1)NC(=O)[C@H](CO)NC(=O)CNC(=O)[C@H](CCC(=O)O)NC(=O)C(C)(C)NC(=O)[C@@H](N)Cc1c[nH]cn1)[C@@H](C)O)C(C)C)C(=O)N[C@@H](C)C(=O)N[C@@](C)(Cc1ccccc1)C(=O)N[C@H](C(=O)N[C@H](C(=O)N[C@@](C)(CCCCN)C(=O)NCC(=O)NCC(N)=O)C(C)C)C(C)C) [SEQ ID NO 42] | 0.207 nM | 0.167 nM | 187 pM
6 | H[Aib]EGS[αMeF]TSDV[αMeS]S[αMeF]LEGEAA[αMeK]E[αMeF]IA[αMeF]VVEGG-NH2 (N-terminus assumed; SMILES CC[C@H](C)[C@H](NC(=O)[C@](C)(Cc1ccccc1)NC(=O)[C@H](CCC(=O)O)NC(=O)[C@](C)(CCCCN)NC(=O)[C@H](C)NC(=O)[C@H](C)NC(=O)[C@H](CCC(=O)O)NC(=O)CNC(=O)[C@H](CCC(=O)O)NC(=O)[C@H](CC(C)C)NC(=O)[C@](C)(Cc1ccccc1)NC(=O)[C@H](CO)NC(=O)[C@](C)(CO)NC(=O)[C@@H](NC(=O)[C@H](CC(=O)O)NC(=O)[C@H](CO)NC(=O)[C@@H](NC(=O)[C@](C)(Cc1ccccc1)NC(=O)[C@H](CO)NC(=O)CNC(=O)[C@H](CCC(=O)O)NC(=O)C(C)(C)NC(=O)[C@@H](N)Cc1c[nH]cn1)[C@@H](C)O)C(C)C)C(=O)N[C@@H](C)C(=O)N[C@@](C)(Cc1ccccc1)C(=O)N[C@H](C(=O)N[C@H](C(=O)N[C@@H](CCC(=O)O)C(=O)NCC(=O)NCC(N)=O)C(C)C)C(C)C) [SEQ ID NO 43] | 0.016 nM | 0.0105 nM | 13 pM
7 | H[Aib]EGS[αMeF]TSDV[αMeS]S[αMeF]LEGEAAEE[αMeF]IA[αMeF]VVEGG-NH2 (N-terminus assumed; SMILES CC[C@H](C)[C@H](NC(=O)[C@](C)(Cc1ccccc1)NC(=O)[C@H](CCC(=O)O)NC(=O)[C@H](CCC(=O)O)NC(=O)[C@H](C)NC(=O)[C@H](C)NC(=O)[C@H](CCC(=O)O)NC(=O)CNC(=O)[C@H](CCC(=O)O)NC(=O)[C@H](CC(C)C)NC(=O)[C@](C)(Cc1ccccc1)NC(=O)[C@H](CO)NC(=O)[C@](C)(CO)NC(=O)[C@@H](NC(=O)[C@H](CC(=O)O)NC(=O)[C@H](CO)NC(=O)[C@@H](NC(=O)[C@](C)(Cc1ccccc1)NC(=O)[C@H](CO)NC(=O)CNC(=O)[C@H](CCC(=O)O)NC(=O)C(C)(C)NC(=O)[C@@H](N)Cc1c[nH]cn1)[C@@H](C)O)C(C)C)C(=O)N[C@@H](C)C(=O)N[C@@](C)(Cc1ccccc1)C(=O)N[C@H](C(=O)N[C@H](C(=O)N[C@@H](CCC(=O)O)C(=O)NCC(=O)NCC(N)=O)C(C)C)C(C)C) [SEQ ID NO 44] | 0.475 nM | 0.435 nM | 455 pM

The next lines start with the values.

Row | INS1e assay EC50 GLP-1 R n1 | INS1e assay EC50 GLP-1 R n2 | INS1e assay EC50 Mean pM GLP-1R | Binder
8 | 76.1 nM | 113 nM | 94600 pM | H[Aib]EGSFTSDV[αMeS]S[αMeF]LEGEAAK([PEG2′-PEG2′-γGlu-Stearoyl])E[αMeF]IA[αMeF]VV[αMeK]GG-NH2 [SEQ ID NO 45]
9 | 52.6 nM | 83.4 nM | 68000 pM | H[Aib]EGS[αMeF]TSDVSS[αMeF]LEGEAAK([PEG2′-PEG2′-γGlu-Stearoyl])E[αMeF]IA[αMeF]VV[αMeK]GG-NH2 [SEQ ID NO 46]
10 | 7.13 nM | 12.2 nM | 9660 pM | H[Aib]EGS[αMeF]TSDV[αMeS]SYLEGEAAK([PEG2′-PEG2′-γGlu-Stearoyl])E[αMeF]IA[αMeF]VV[αMeK]GG-NH2 [SEQ ID NO 47]
11 | 0.729 nM | 0.871 nM | 800 pM | H[Aib]EGS[αMeF]TSDV[αMeS]S[αMeF]LEGEAAK([PEG2′-PEG2′-γGlu-Stearoyl])EFIA[αMeF]VV[αMeK]GG-NH2 [SEQ ID NO 48]
12 | 9.35 nM | 10.7 nM | 10000 pM | H[Aib]EGS[αMeF]TSDV[αMeS]S[αMeF]LEGEAAK([PEG2′-PEG2′-γGlu-Stearoyl])E[αMeF]IAWVV[αMeK]GG-NH2 [SEQ ID NO 49]
